Assay results published in article PMC5829251, “NAD^+ analog reveals PARP-1 substrate-blocking mechanism and allosteric communication from catalytic center to DNA-binding domains” (Nature Communications, 2018).

Target: PARP-1 WT (human) (UniProt P09874)
Experiment: fluorescence polarization
Conditions: 250 mM NaCl, FP affinity: 12 mM Hepes pH 8.0, 250 mM NaCl, 4% glycerol, 5.7 mM beta-mercaptoethanol, 0.05 mg/ml BSA, RT, 5 nM probe, FP competition: same but 60 mM KCl, 8 mM

PARP-1 WT (human), sequence (P09874 whole entry): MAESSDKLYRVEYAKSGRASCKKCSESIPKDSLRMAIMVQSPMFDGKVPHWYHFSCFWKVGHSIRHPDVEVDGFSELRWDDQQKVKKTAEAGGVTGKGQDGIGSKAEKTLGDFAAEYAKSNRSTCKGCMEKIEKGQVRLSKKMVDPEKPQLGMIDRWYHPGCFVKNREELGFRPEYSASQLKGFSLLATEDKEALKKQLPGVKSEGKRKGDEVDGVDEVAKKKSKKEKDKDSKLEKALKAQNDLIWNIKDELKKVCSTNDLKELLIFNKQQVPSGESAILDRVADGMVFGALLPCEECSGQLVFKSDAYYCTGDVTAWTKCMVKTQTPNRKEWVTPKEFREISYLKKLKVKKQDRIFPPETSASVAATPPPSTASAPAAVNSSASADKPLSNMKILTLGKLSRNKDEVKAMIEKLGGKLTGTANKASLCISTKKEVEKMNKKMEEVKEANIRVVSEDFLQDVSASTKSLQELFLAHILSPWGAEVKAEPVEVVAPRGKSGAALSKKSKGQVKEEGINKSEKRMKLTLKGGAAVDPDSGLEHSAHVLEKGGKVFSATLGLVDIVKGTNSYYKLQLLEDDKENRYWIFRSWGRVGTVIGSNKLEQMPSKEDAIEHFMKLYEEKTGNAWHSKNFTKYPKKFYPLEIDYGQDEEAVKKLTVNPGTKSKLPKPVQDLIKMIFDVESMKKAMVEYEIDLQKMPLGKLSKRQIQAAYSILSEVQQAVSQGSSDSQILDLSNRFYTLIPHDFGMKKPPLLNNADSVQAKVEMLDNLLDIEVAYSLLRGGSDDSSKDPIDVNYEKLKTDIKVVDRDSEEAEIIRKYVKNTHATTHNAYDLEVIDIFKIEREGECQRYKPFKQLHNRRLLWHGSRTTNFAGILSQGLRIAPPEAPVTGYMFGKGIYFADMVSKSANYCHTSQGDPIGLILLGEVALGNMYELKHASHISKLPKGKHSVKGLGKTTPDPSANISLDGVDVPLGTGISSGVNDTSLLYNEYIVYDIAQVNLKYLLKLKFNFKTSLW

GCTGAGCTTCTGGTGAAGCTCAGCTCGCGGCAGCTGGTGCTGCCGCGA [nick dumbbell DNA, FAM]
binding signal (fold higher affinity than without BAD) (100 uM BAD): 10
binding signal (100 uM benzamide, scale: fold): 1
